Test results taken from paper PMC2643056 (Molecular cell, 2008).

Target: T1, His6-Dsk2 (S. cerevisiae, UniProt P48510 1-373)
T1 sequence (looked up): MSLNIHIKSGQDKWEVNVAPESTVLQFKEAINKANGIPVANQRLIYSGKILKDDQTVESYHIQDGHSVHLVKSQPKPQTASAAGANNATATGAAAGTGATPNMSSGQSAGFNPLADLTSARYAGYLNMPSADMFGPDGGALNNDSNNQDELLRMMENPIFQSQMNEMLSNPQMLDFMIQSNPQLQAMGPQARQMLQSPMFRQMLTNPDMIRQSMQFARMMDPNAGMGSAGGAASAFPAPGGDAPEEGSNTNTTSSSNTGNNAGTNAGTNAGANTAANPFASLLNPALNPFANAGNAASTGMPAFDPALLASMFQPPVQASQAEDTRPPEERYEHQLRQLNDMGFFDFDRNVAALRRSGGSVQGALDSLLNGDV
Assay: far-Western, overlay or dot blot

B1: recombinant Rpn10, full length (natural protein, S. cerevisiae, UniProt P38886 1-268, looked up)
chain: MVLEATVLVIDNSEYSRNGDFPRTRFEAQIDSVEFIFQAKRNSNPENTVGLISGAGANPRVLSTFTAEFGKILAGLHDTQIEGKLHMATALQIAQLTLKHRQNKVQHQRIVAFVCSPISDSRDELIRLAKTLKKNNVAVDIINFGEIEQNTELLDEFIAAVNNPQEETSHLLTVTPGPRLLYENIASSPIILEEGSSGMGAFGGSGGDSDANGTFMDFGVDPSMDPELAMALRLSMEEEQQRQERLRQQQQQQDQPEQSEQPEQHQDK
  binding result: binds
